Measurements published in the supplement of paper PMC9170038.

Tested on: MS2 coat protein
Assay: apparent KD of MS2 coat protein; designed switch direction (-1 OFF switch, 1 ON switch): 1; higher = weaker reporter binding
Procedure, shortened: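 Stalled E. coli RNA polymerase transcribed designed RNA switches on Illumina chips, which were then titrated with SNAP-549-labelled MS2 coat protein, doubling from 0.7 or 1.5 nM to 3 µM. Steps lasted from 0.8–1.5 h at the lowest concentration to 10–20 min at the highest. The apparent KD is each design's median over clusters of curve-fitted normalised fluorescence.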

[1] = input ligand: microRNA oligo, concentration not stated
[2] = Eterna round: R95, input ligand: FMN 200 uM
[3] = Eterna round: R95, input ligand: microRNA oligo, concentration not stated
[4] = Eterna round: R95, input ligand: none

Sequence	apparent KD of MS2 coat protein (input ligand: FMN 200 uM) [nM]	apparent KD of MS2 coat protein [1] [nM]	apparent KD of MS2 coat protein (input ligand: none) [nM]	apparent KD of MS2 coat protein [2] [nM]	apparent KD of MS2 coat protein [3] [nM]	apparent KD of MS2 coat protein [4] [nM]
GUUGAGAAAUAAGGAUAUACAUGGAAGACACAUGAGGAUCACCCAUGUGGGAGGGAAACCAGGAGGUAGAAGGUAUUGGGAAAC [AK SSNG2-V2-23] (Eterna round: R96, puzzle: Same State NG 2)	33.1	24.1	43.7	–	–	–
GAAAUAAUGUAAGGAUAUACAUGAGGAUUUCUCGUAGAAGGUACAAGACAUGAGGAUCACCCAUGUGUCGCUCCGUAGAGCGUA [Mat - Same State NG 1 - JL mod - D14] (Eterna round: R96, puzzle: Same State NG 1)	–	125	–	–	–	–
AGCUAUCGAAAACGAUAGCAAGAGCAUGUACAUGAGGAUCACCCAUGUCAUGUACAAGCUUUUUGCUCGUCUUAAAA [Zipper 23 - 2] (puzzle: Sensor for hsa-mir-208a)	–	–	–	330	17	490
ACAUGAGGAUCACCCAUGUAUGCUCAGGAAACUGUGCAGCAUUAGGAUAUGGAUCCUAAUUGGAUCCAGAAGGAGUGAAUUAUU [Fiskers NG3ss - 26] (Eterna round: R96, puzzle: Same State NG 3)	82.2	117	126	–	–	–
UUUAGAUUCAGAGGAUAUUGAUGUUGUAUUUUACAAGAAGGCUGAUUGGUUUGAAAUGUUAUUAAACAUGAGGAUCACCCAUGU [JR_SSNG1_Sub012] (Eterna round: R96, puzzle: Same State NG 1)	31.7	32.3	44.5	–	–	–
AGCUUACAUGAGGAUCACCCAUGUUUUAGCCAGACAGGAUAUGGGUAUCUAAAACACAACCCAGAAGGGUCAAAAC [Usveriri] (puzzle: Same State 1)	–	–	–	57.5	233	489
GAGUCAGAUCGAGGAUAUUUGUUAUGACGAUCCCACAUGAGGAUCACCCAUGUCCACGAUCCUCCAAAGAAGGUGAGGCUGGCG [Eternabot solution 32] (Eterna round: R96, puzzle: Same State NG 2)	202	39.6	88.2	–	–	–
CGCCAAUUGGCACAGGAUAUGAGCAUGCUCACAUGAGGAUCACCCAUGUGAUUACCAACGCAAAAUCAGAAGGGUGCCCUCGUCA [Beanza] (Eterna round: R96, puzzle: Same State 2)	80.6	99.1	164	–	–	–
CUCCCAUGUGCACAGGAUAUGCCGGGAUGCACAUGAGGAUCACCCAUGUAAUCCUGAAAAUAAAAGCAGAAGGGUGAUCAUGGGU [Teriqula] (puzzle: Same State 2)	–	–	–	7.24	16.5	13.2
GUGGCCCAGGCACAGGAUAUGUUUCUCGUAACAUGAGGAUCACCCAUGUGCCUAUGAGAUUUAAUGCAGAAGGGUGCACGCCACG [Atiinbe] (Eterna round: R96, puzzle: Same State 2)	18.2	61.3	103	–	–	–
AGCCGAGACACAGGAUAUACAUGUUUACAUGAGGAUCACCCAUGUAGCAACACGUGGUAGUGAUUGUAGAAGGGUGCUCGGCGC [Omei SS(NG)2 Cv12] (Eterna round: R96, puzzle: Same State NG 2)	15.8	12.6	23.3	–	–	–
GCCAACAUGAGGAUCACCCAUGUCCGGAAGUGAAUUCAAAGUGAGGAUAUGGAGAGACCGAAAAUCCAGAAGGCACGCACAUGC [Eternabot solution 10] (Eterna round: R96, puzzle: Same State NG 3)	1500	475	1260	–	–	–
UGGUACAUGGGAGGAUAUGGAGUGAUGACAUGAGGAUCACCCAUGUUAUAUAUGCCGAGAGGCAACUAGAAGGCCCAUGUACCU [JL SSNG1 3.97] (Eterna round: R96, puzzle: Same State NG 2)	19.4	121	137	–	–	–
GUUAAACAUGAGGAUCACCCAUGUCAUCUAAGUCGAGGAUAUGGGAAUUAAUUAAUUAAACCAGAAGGCGAAAAUU [Mat - Same State 1 - D95] (puzzle: Same State 1)	–	–	–	59.7	756	1110
UAGUACAAGCUUUUUGCUUGUCUUAUUUAACAUGAGGAUCACCCAUGUAAGUUGAAAGUUAGAGAGUGGAGGUUGAA [JR_SHM208A_Sub050] (puzzle: Sensor for hsa-mir-208a)	–	–	–	20	20.4	18.8
GGAGCCGGCACCGAGGAUAUUCGUAUUAAAACAUGAGGAUCACCCAUGUAGGCCAGAAGGCCUUGGGAGAAGGCGGAUCGGCUCG [Xeonanis - 2] (puzzle: Same State 2)	–	–	–	12.4	65.2	106

Sequence	apparent KD of MS2 coat protein (input ligand: FMN 200 uM) [nM]	apparent KD of MS2 coat protein [1] [nM]	apparent KD of MS2 coat protein (input ligand: none) [nM]	apparent KD of MS2 coat protein [2] [nM]	apparent KD of MS2 coat protein [3] [nM]	apparent KD of MS2 coat protein [4] [nM]
UUCCACGUUGCACAGGAUAUCCAAGCCGUGACAUGAGGAUCACCCAUGUCUAGUAGGCGACUAAGGGAGAAGGGUGUUGUCGUGC [Biuser] (puzzle: Same State 2)	–	–	–	10.8	10.1	10.1
UGUCGUUGCAGAGGAUAUGGGAACUCGAUGCCGUAAGGUAUCAUAACAUGAGGAUCACCCAUGUCCCAGAAGGCUGCAGCAAGC [Leatve Mod] (Eterna round: R96, puzzle: Same State NG 2)	29.7	94	235	–	–	–
GUUAAACAUGAGGAUCACCCAUGUAAUAAUAUGGGAGGAUAUCAGAAAUUAUGUAUGAAAUGAGAAGGCCUAAUUG [Mat - Same State 1 - Mod of Eli - D79] (puzzle: Same State 1)	–	–	–	89.8	244	198
UUGUUUCGUCAUUAACAUGAGGAUCACCCAUGUAAAGGAGCAGAGGAUAUGCAUGUUUGAUUGUAGCAGAAGGCUGAUUGUUGU [JR_SSNG3_Sub034] (Eterna round: R96, puzzle: Same State NG 3)	32.6	27.9	31.9	–	–	–
AGCAAUCUAUCUCAGGAUAUCAUGUCAAAGACAUGAGGAUCACCCAUGUACCAGGAAACUGGUUAUGAGAAGGGAGAUAGAUUGA [Mat - Same State 2 - Mod - D29] (puzzle: Same State 2)	–	–	–	154	52.2	177
CCGAUUUAUGGAGGAUAUGGAGCCUUAUUGGCUCCAGAAGGUCAAUAACAUGAGGAUCACCCAUGUACGGCGGUCAAUAGACCG [Eli NG1ss - 70] (Eterna round: R96, puzzle: Same State NG 1)	24.8	28.1	34.6	–	–	–
GGCGAACAGGCUAACAUGAGGAUCACCCAUGUGGACUCAUGGUAGGAUAUCGGGAAGGAGGAAACCGAGAAGGGCCGGUGAGCC [AK SSNG3-V2-48] (Eterna round: R96, puzzle: Same State NG 3)	14.3	20	716	–	–	–
UAUAAACAUGAGGAUCACCCAUGUAAUAAUAUGGGAGGAUAUCAGAAUUUAUUUAUUUAAUGAGAAGGCCUAAUAU [Mat - Same State 1 - Mod of Eli - D67] (Eterna round: R96, puzzle: Same State 1)	–	440	–	–	–	–
GGUCCGGCCUGAGCUGGACCGAAGCAUGUACAUGAGGAUCACCCAUGUUCAUGUGCAGGCUUUUUGCUCGUCUUGUG [JL-shm-2.05 JL mod] (puzzle: Sensor for hsa-mir-208a)	–	–	–	91.7	12.7	106
AUACAUGAGGAUCACCCAUGUAAUUAAUUAACUUGUAAGAUCAAGGAUAUCAGCUCGAAUAGAGCUGAGAAGGUGAUCACAUGU [SSNG3/21-C1] (Eterna round: R96, puzzle: Same State NG 3)	–	105	–	–	–	–
GUGGUCAGACAUGAGGAUCACCCAUGUGGAAUAAAUAAGGAGAAGGAUAUCUAAUAUAGGAUAUAAGAGAAGGUUUGGUUGGUG (Eterna round: R96, puzzle: Same State NG 3)	–	63.2	–	–	–	–
AAAAAACAUGAGGAUCACCCAUGUAAAAAAAACACAGGAUAUCCCUUUUUUAAAAAAAAAGGAGAAGGGUGAAAAA [Nob's Hobby 7 - Jieux - Same State 1] (Eterna round: R96, puzzle: Same State 1)	–	36.4	–	–	–	–
AAUAGUUGCGGGCAGGAUAUGUAUUAAAAUACAUGAGGAUCACCCAUGUGCGGGUAUAACACCCGACAGAAGGGCCAAUCGCGAC [Mat - Same State 2 - Mod of UCT - D94] (puzzle: Same State 2)	–	–	–	25.7	216	233
ACAUGAAAUAGAGGAUAUUUUGUACCUACAUGUGACAUGAGGAUCACCCAUGUGGUAAGUAUGAGAAAGAAGGCUAAGAUAUGU [Equivalence 12 - Jieux - Same State NG 2] (Eterna round: R96, puzzle: Same State NG 2)	18.6	30.3	48.6	–	–	–
UGCUUCGUGUAAGGAUAUGCAGCCGUUUCGGCUGCAGAAGGUACUAUAAUACAUGAGGAUCACCCAUGUCUCUCGCAUUGCGGG [salish99_SSng1_r04_303] (Eterna round: R96, puzzle: Same State NG 1)	37.5	40.3	52.2	–	–	–
